From paper PMC4201290 come the findings set out here.

Holding throughout (experiment): fluorescence polarization
In data set [1] the target is Egr1/Zif268 ZnF1-3 (Homo sapiens) (UniProt P18146). The following applies: FP: 5 nM FAM-dsDNA, 300 mM NaCl (200 mM in Fig 4E), 20 mM Tris-HCl pH 7.5, 5% glycerol, 0.5 mM TCEP, 25 C, 10 min.
Data set [2] concerns WT1 ZnF2-4 (-KTS) (Homo sapiens), P19544-4. The following applies: FP: 5 nM FAM-dsDNA, 300 mM NaCl (200 mM in Fig 4E), 20 mM Tris-HCl pH 7.5, 5% glycerol, 0.5 mM TCEP, 25 C, 10 min; for Kd: 300 mM NaCl.
For data set [3], the target named is WT1 ZnF2-4 +KTS isoform (Homo sapiens) (UniProt P19544). The following applies: FP: 5 nM FAM-dsDNA, 300 mM NaCl (200 mM in Fig 4E), 20 mM Tris-HCl pH 7.5, 5% glycerol, 0.5 mM TCEP, 25 C, 10 min.
Where [4] appears, read: 5fC at C9 of strand 1, 5mC at C3 of strand 1 and C3, C9 of strand 2.
Setting [5] is: 5hmC at C9 of strand 1, 5mC at C3 of strand 1 and C3, C9 of strand 2.
[6] abbreviates: 5hmC at C3 and C9 of strand 1, 5mC at C3 and C9 of strand 2.
Where [7] appears, read: 5mC at C3 and C9 of strand 2 only.
The mark [8] stands for this setting: 5mC at C3 and C9 of both strands.

WT1 ZnF2-4 +KTS isoform (Homo sapiens), sequence (P19544 350-440): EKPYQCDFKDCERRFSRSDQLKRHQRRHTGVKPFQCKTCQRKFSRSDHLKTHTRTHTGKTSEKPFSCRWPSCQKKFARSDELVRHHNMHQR
WT1 ZnF2-4 (-KTS) (Homo sapiens), P19544-4, sequence (P19544 other isoform, or with tags, fused parts or gaps): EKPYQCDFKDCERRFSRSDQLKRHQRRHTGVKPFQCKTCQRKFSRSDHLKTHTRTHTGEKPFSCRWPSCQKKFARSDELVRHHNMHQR

With AGCGTGGGCGT / TACGCCCACGC [5caCx1], the Kd (usually a measure of binding affinity in units of concentration) was > 12000 nM in data set [1] (5caC at C9 of strand 1, 5mC at C3 of strand 1 and C3, C9 of strand 2); 50 nM in data set [2] (2-fold stronger than 5mC, 5caC at C9 of strand 1, 5mC at C3 of strand 1 and C3, C9 of strand 2).
AGCGTGGGCGT / TACGCCCACGC [5caCx2] displayed a Kd in data set [2] (~25-fold weaker than M/M, also printed as KD > 2.3 uM, 5caC at C3 and C9 of strand 1, 5mC at C3 and C9 of strand 2) of 2300 nM. That is a single-digit micromolar value.
As to AGCGTGGGCGT / TACGCCCACGC [5fCx1], the binding signal (fold weaker than 5mC (M/M)) in data set [1] (setting [4]) stood at 15; in data set [2] (setting [4]), 14.
For the sequence AGCGTGGGCGT / TACGCCCACGC [5fCx2], the binding signal (fold weaker than M/M) in data set [2] (5fC at C3 and C9 of strand 1, 5mC at C3 and C9 of strand 2) was found to be 75.
With AGCGTGGGCGT / TACGCCCACGC [5hmCx1], the binding signal (fold weaker than 5mC (M/M)) in data set [1] (setting [5]) came out at 3.6; in data set [2] (setting [5]) it was 4.5.
Consider AGCGTGGGCGT / TACGCCCACGC [5hmCx2], for which the figures for the binding signal (fold weaker than M/M) in data set [1] (setting [6]) and in data set [2] (setting [6]) were 24 and 75, respectively.
As to AGCGTGGGCGT / TACGCCCACGC [C/C], the results for the binding signal (fold weaker than M/M) in data set [1] (none) and in data set [2] (none) were 2.8 and 1.8, respectively. The binding signal (fold weaker than -KTS isoform) in data set [3] (none) was 24.
On to AGCGTGGGCGT / TACGCCCACGC [C/M], for which the binding signal (fold weaker than M/M) in data set [1] (setting [7]) stood at 2; in data set [2] (setting [7]), 1.2. Also, in data set [3] (setting [7]), the binding signal (fold weaker than -KTS isoform) was determined as 24.
AGCGTGGGCGT / TACGCCCACGC [M/M]: the binding signal (fold stronger than C/C) in data set [1] (setting [8]) is 2.8; in data set [2] (setting [8]) it was 1.8. The sequence further yielded a binding signal (fold weaker than -KTS isoform) in data set [3] (300 mM NaCl, 25-fold also printed (Fig 4C), 5mC at C3 and C9 of both strands) of 24.
